B1: CPEB3 Ribozyme (parent)
chain: GGGGGCCACAGCAGAAGCGUUCACGUCGCGGCCCCUGUCAGAUUCUGGUGAAUCUGCGAAUUCUGCUGU

Variants of: B1
Experiment: self-cleavage, relative activity (ratio to wild type); higher = more cleavage; co-transcriptional

Row | Variant | self-cleavage
1 | C22G U64C | 0.205
2 | C22G U64A | 0.202
3 | C22G U43C | 0.174
4 | C22G U43G | 0.133
5 | C22G U62C | 0.117
6 | C22G U62G | 0.162
7 | C22G U62A | 0.194
8 | A23C | 0.957
9 | C22U C27G | 0.215
10 | C22U C27U | 0.164
11 | C22U C27A | 0.2
12 | A23C C32A | 0.59
13 | A23C C32G | 0.329
14 | C22G U44C | 0.22
15 | C22G U44A | 0.158
16 | A23C A52G | 0.963
17 | A23C A52U | 0.917
18 | A23C A52C | 0.921
19 | C22U C29G | 0.152
20 | C22U C29U | 0.14
21 | C22U | 0.337
22 | C22U G68A | 0.48
23 | C22U G68C | 0.517
24 | C22U C39G | 0.207

Row | Variant | self-cleavage
25 | C22U C39A | 0.148
26 | C22U U36G | 0.175
27 | C22U U36C | 0.157
28 | C22U U36A | 0.196
29 | C22U C24U | 0.105
30 | C22U C24G | 0.169
31 | A23C A42G | 0.901
32 | C22U G48U | 0.401
33 | C22U G48C | 0.313
34 | C22U G41C | 0.117
35 | C22U G41A | 0.185
36 | C22U G41U | 0.164
37 | C22U G28A | 0.117
38 | C22U G28U | 0.148
39 | C22U U26A | 0.2
40 | C22U C54A | 0.19
41 | A23C C35G | 0.417
42 | C22U U67A | 0.369
43 | C22U C57A | 0.166
44 | C22U U46A | 0.29
45 | A23C C34G | 0.36
46 | A23C C34A | 0.696
47 | A23C C34U | 0.936
48 | C22U C63U | 0.265

Row | Variant | self-cleavage
49 | C22U C63A | 0.178
50 | C22U C63G | 0.156
51 | C22U U44C | 0.31
52 | C22U U44A | 0.318
53 | C22U U44G | 0.241
54 | C22U C35A | 0.178
55 | C22U C35U | 0.183
56 | A23C C54U | 0.967
57 | A23C C54G | 0.921
58 | C22U A52G | 0.379
59 | C22U A52C | 0.233
60 | C22U G37A | 0.957
61 | C22U G37C | 0.216
62 | C22G U69C | 0.374
63 | C22U A42U | 0.27
64 | C22U A42C | 0.247
65 | C22U G58U | 0.374
66 | C22U G58C | 0.223
67 | C22U G58A | 0.255
68 | C22U U43A | 0.217
69 | C22U U43G | 0.222
70 | A23C C45U | 0.961
71 | A23C C45A | 0.986
72 | A23C C45G | 0.931

Row | Variant | self-cleavage
73 | C22U U62G | 0.207
74 | C22U U62A | 0.167
75 | C22G U55G | 0.14
76 | C22G U55C | 0.198
77 | C22G U55A | 0.116
78 | C22U G31U | 0.116
79 | C22U G31A | 0.183
80 | C22U G31C | 0.103
81 | C22U G30C | 0.181
82 | C22U G56U | 0.169
83 | C22U G56C | 0.21
84 | C22U G56A | 0.187
85 | C22G U53C | 0.184
86 | C22G U53G | 0.129
87 | A23C C39A | 0.798
88 | A23C C39G | 0.905
89 | C22U C33A | 0.176
90 | C22U C33U | 0.315
91 | C22U C33G | 0.18
92 | C22U U69C | 0.601
93 | C22U U69A | 0.384
94 | C22U U69G | 0.462
95 | A23C C33U | 0.937
96 | A23C C33G | 0.439

Row | Variant | self-cleavage
97 | C22G U67C | 0.175
98 | C22G U67A | 0.242
99 | C22G U67G | 0.121
100 | C22U G50A | 0.355
101 | C22U G50U | 0.312
102 | C22U G50C | 0.243
103 | C22U U38C | 0.304
104 | C22U U38A | 0.272
105 | C22U U38G | 0.141
106 | A23C C57A | 0.339
107 | A23C C57G | 0.412
108 | C22U C66A | 0.19
109 | C22U C66G | 0.132
110 | A23C C29U | 0.389
111 | A23C C29A | 0.603
112 | C22U G47C | 0.389
113 | C22U G47A | 0.279
114 | C22U G47U | 0.37
115 | C22G U61C | 0.167
116 | C22G U61G | 0.257
117 | A23C A51G | 0.899
118 | A23C A51U | 0.959
119 | A23C A51C | 0.942
120 | C22U A51G | 0.314

Row | Variant | self-cleavage
121 | C22U A51C | 0.291
122 | C22U U55C | 0.157
123 | C22U U55A | 0.182
124 | C22U U55G | 0.169
125 | A23C A59C | 0.69
126 | A23C A59G | 0.96
127 | C22G U49G | 0.153
128 | C22G U49C | 0.123
129 | C22G U46A | 0.205
130 | C22G U46C | 0.192
131 | C22U C32U | 0.33
132 | C22U C32A | 0.17
133 | C22U U49C | 0.294
134 | C22U U49G | 0.247
135 | C22U C45U | 0.318
136 | C22U C45G | 0.25
137 | C22U C45A | 0.33
138 | C22U U53G | 0.111
139 | C22U U53A | 0.193
140 | C22U U53C | 0.227
141 | C22U A23U | 0.384
142 | C22U A23G | 0.307
143 | C22U U61C | 0.134
144 | C22U U61G | 0.264

Row | Variant | self-cleavage
145 | C22U G65C | 0.248
146 | C22U G65U | 0.195
147 | C22U G65A | 0.216
148 | A23C C27A | 0.463
149 | A23C C27U | 0.358
150 | A23C A40G | 0.92
151 | A23C C24G | 0.414
152 | A23C C24U | 0.52
153 | A23C C24A | 0.785
154 | C22U U64A | 0.21
155 | C22U C34A | 0.22
156 | C22U C34U | 0.332
157 | C22U C34G | 0.202
158 | A23C A60G | 0.828
159 | A23C A60C | 0.327
160 | C22U G25C | 0.153
161 | C22U G25U | 0.153
162 | C22U G25A | 0.164
163 | C22U A59U | 0.201
164 | C22U A59C | 0.188
165 | C22U A60C | 0.158
166 | C22U A60G | 0.223
167 | C22U A60U | 0.137

From the RNAGym collection of RNA variant scans (doi:10.7554/elife.80360)
